The labels stand for the following.
T1: Orc4 (S. cerevisiae, UniProt P54791 1-529)
T1 sequence: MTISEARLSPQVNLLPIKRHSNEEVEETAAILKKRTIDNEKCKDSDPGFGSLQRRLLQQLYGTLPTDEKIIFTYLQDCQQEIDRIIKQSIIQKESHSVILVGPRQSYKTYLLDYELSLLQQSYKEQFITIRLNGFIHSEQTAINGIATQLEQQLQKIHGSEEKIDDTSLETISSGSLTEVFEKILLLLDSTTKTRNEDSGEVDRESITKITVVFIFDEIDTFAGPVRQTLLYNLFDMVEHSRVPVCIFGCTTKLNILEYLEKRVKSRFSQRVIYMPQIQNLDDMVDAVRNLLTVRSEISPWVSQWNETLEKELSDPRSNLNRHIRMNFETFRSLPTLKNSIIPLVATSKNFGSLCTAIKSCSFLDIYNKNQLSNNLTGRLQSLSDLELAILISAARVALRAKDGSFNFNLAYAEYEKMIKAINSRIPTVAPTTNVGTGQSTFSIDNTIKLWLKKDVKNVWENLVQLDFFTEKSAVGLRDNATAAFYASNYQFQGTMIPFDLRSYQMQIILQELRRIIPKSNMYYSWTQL

T2: Mcm2 (S. cerevisiae, UniProt P29469 1-868)
T2 sequence: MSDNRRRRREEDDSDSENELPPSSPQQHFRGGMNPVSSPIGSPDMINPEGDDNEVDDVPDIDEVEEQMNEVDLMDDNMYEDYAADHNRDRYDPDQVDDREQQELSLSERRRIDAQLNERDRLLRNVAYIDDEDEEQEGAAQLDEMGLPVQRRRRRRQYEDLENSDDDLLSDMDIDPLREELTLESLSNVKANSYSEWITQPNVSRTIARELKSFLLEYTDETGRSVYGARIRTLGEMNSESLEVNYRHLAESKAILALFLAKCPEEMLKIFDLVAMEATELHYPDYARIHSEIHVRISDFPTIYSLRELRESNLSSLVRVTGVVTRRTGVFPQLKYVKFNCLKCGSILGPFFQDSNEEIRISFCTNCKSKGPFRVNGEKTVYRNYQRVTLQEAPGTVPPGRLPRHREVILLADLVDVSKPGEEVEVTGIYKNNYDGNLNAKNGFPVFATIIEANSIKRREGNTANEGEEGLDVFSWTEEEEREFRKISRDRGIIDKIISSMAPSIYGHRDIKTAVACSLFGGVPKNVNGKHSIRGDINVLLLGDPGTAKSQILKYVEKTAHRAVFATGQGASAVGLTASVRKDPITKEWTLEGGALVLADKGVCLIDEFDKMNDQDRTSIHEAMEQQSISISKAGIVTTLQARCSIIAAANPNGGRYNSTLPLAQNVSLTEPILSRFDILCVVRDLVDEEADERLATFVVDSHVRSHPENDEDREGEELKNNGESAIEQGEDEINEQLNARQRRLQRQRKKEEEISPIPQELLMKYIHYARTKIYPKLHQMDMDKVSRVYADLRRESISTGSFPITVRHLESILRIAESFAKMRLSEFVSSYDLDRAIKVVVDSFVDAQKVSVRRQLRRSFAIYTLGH

T3: Orc2 (S. cerevisiae, UniProt P32833 1-620)
T3 sequence: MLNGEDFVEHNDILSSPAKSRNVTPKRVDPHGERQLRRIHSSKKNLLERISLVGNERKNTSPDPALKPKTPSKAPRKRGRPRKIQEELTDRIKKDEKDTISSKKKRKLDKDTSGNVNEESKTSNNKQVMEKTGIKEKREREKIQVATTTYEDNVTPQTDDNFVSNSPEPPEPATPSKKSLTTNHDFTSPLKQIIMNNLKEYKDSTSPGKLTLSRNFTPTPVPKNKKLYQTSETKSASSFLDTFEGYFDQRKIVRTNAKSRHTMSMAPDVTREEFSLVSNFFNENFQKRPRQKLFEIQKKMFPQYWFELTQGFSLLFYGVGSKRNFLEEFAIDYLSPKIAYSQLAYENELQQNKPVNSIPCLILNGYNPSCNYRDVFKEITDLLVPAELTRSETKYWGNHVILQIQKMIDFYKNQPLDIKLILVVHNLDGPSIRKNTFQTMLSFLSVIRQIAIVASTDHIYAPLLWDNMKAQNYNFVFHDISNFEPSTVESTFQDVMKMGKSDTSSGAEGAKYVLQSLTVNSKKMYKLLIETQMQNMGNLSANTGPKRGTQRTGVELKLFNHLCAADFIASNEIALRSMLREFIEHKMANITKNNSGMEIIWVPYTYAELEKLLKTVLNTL

B1: Orc5 (natural protein)
chain: MNVTTPEVAFREYQTNCLASYISADPDITPSNLILQGYSGTGKTYTLKKYFNANPNLHAVWLEPVELVSWKPLLQAIARTVQYKLKTLYPNIPTTDYDPLQVEEPFLLVKTLHNIFVQYESLQEKTCLFLILDGFDSLQDLDAALFNKYIKLNELLPKDSKINIKFIYTMLETSFLQRYSTHCIPTVMFPRYNVDEVSTILVMSRCGELMEDSCLRKRIIEEQITDCTDDQFQNVAANFIHLIVQAFHSYTGNDIFALNDLIDFKWPKYVSRITKENIFEPLALYKSAIKLFLSTDDNLSENGQGESAITTNRDDLENSQTYDLSIISKYLLIASYICSYLEPRYDASIFSRKTRIIQGRAAYGRRKKKEVNPRYLQPSLFAIERLLAIFQAIFPIQGKAESGSLSALREESLMKANIEVFQNLSELHTLKLIATTMNKNIDYLSPKVRWKVNVPWEIIKEISESVHFNISDYFSDIHE
B2: Orc3 (natural protein)
chain: MSDLNQSKKMNVSEFADAQRSHYTVYPSLPQSNKNDKHIPFVKLLSGKESEVNVEKRWELYHQLHSHFHDQVDHIIDNIEADLKAEISDLLYSETTQKRRCFNTIFLLGSDSTTKIELKDESSRYNVLIELTPKESPNVRMMLRRSMYKLYSAADAEEHPTIKYEDINDEDGDFTEQNNDVSYDLSLVENFKRLFGKDLAMVFNFKDVDSINFNTLDNFIILLKSAFKYDHVKISLIFNINTNLSNIEKNLRQSTIRLLKRNYHKLDVSSNKGFKYGNQIFQSFLDTVDGKLNLSDRFVEFILSKMANNTNHNLQLLTKMLDYSLMSYFFQNAFSVFIDPVNVDFLNDDYLKILSRCPTFMFFVEGLIKQHAPADEILSLLTNKNRGLEEFFVEFLVRENPINGHAKFVARFLEEELNITNFNLIELYHNLLIGKLDSYLDRWSACKEYKDRLHFEPIDTIFQELFTLDNRSGLLTQSIFPSYKSNIEDNLLSWEQVLPSLDKENYDTLSGDLDKIMAPVLGQLFKLYREANMTINIYDFYIAFRETLPKEEILNFIRKDPSNTKLLELAETPDAFDKVALILFMQAIFAFENMGLIKFQSTKSYDLVEKCVWRGI

Common to all, as to experiment: cryo-EM structure
For one experiment, the target named is Mcm6 (S. cerevisiae, UniProt P53091 1-1017).
Mcm6, sequence (P53091 whole entry): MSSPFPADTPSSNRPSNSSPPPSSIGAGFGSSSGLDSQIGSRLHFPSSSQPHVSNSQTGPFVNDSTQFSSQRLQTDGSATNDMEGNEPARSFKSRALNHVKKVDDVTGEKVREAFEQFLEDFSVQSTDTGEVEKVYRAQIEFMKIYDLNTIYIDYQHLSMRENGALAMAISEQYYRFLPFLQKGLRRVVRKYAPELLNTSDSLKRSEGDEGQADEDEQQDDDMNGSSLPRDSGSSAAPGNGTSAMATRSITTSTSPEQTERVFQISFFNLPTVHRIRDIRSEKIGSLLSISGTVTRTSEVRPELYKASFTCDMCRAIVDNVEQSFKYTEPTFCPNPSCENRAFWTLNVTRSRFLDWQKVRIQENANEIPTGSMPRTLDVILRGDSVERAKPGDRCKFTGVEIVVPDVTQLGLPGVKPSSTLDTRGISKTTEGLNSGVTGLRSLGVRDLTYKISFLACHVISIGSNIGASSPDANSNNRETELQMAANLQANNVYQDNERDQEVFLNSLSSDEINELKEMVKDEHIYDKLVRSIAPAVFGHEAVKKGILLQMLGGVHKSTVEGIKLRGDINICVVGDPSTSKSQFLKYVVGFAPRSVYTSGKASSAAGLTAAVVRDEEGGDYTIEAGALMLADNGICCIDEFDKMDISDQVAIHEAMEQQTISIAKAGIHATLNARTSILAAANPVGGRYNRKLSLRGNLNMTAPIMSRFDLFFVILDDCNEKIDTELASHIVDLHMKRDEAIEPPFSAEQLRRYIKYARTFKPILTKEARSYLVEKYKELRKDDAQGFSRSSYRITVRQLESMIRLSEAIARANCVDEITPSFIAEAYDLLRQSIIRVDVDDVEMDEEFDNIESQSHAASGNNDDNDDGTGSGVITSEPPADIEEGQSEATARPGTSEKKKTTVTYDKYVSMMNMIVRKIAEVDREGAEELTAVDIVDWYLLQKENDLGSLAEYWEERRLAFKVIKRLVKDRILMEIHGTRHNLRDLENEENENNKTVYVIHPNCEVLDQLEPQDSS
The next experiment has as its target T1, Orc4.
The experiment “Orc3” addresses B2.
The target of another experiment is T2, Mcm2.
The next experiment concerns the target T3, Orc2.

The results in this text go back to article PMC5503505 (Nature structural & molecular biology, 2017).

Regarding B1, the binding result with Mcm6, in the experiment with Orc4, in the experiment with Orc3 and with Mcm2 was “binds” throughout.
Consider B2, for which the binding result with Orc2 is “binds”.
